{
  "source": "patent US20240124560A1",
  "about": "(Scripps Research, published 2024)",
  "key": {"HIV-1 Du156.12 Env [1]": {"biological_target": "HIV-1 Du156.12 Env (HIV-1 Du156.12)", "assay": "cell-based or functional assay"}, "HIV-1 HxB2 Env [2]": {"biological_target": "T1, HIV-1 HxB2 Env (HIV-1 HxB2, UniProt P04578 33-856)", "assay": "cell-based or functional assay"}, "HIV-1 HxB2 Env [3]": {"biological_target": "T1, HIV-1 HxB2 Env", "assay": "BN-PAGE mobility shift of HxB2 Env with Fab, relative shift"}, "[4]": {"biological_target": "HIV-2 Env (parental virus of the chimeras) (HIV-2)", "assay": "cell-based or functional assay"}, "HIV-2 C4 chimera Env": {"biological_target": "HIV-2 C4 chimera Env (HIV-2 (HIV-1 MPER) chimera)", "assay": "cell-based or functional assay"}, "HIV-2 C3 chimera Env": {"biological_target": "HIV-2 C3 chimera Env (HIV-2 (HIV-1 MPER) chimera)", "assay": "cell-based or functional assay"}, "HIV-1 Du156.12 Env [5]": {"biological_target": "HIV-1 Du156.12 Env (HIV-1 Du156.12)", "assay": "cell-based or functional assay", "remark": "listed apart in the source"}, "HIV-2 C1 chimera Env": {"biological_target": "HIV-2 C1 chimera Env (HIV-2 (HIV-1 MPER) chimera)", "assay": "cell-based or functional assay"}, "HIV-1 Du156.12 Env [6]": {"biological_target": "HIV-1 Du156.12 Env (HIV-1 Du156.12)", "assay": "cell-based or functional assay", "remark": "listed apart in the source"}, "HIV-1 HxB2 Env [7]": {"biological_target": "T1, HIV-1 HxB2 Env", "assay": "cell-based or functional assay", "remark": "listed apart in the source"}},
  "data": [
    {"binder": "PGZL1_gVmDmJ F100A (antibody, V domains shown) V domain 1: QVQLVQSGAEVKKPGSSVKVSCKASGGTFSSYAISWVRQAPGQGLEWMGGIIPIFGTANYAQKFQGRVTITADKSTSTAYMELSSLRSEDTAVYYCAREGEGWAGKPLRAFEFWGQGTVITVSS V domain 2: not shown", "values": [
      {"measurement": "decrease in neutralization against the parent antibody", "setting": "HIV-1 Du156.12 Env [1]", "value": "> 10", "unit": "fold"},
      {"measurement": "decrease in neutralization against the parent antibody", "setting": "HIV-1 HxB2 Env [2]", "value": "> 10", "unit": "fold"}
    ]},
    {"binder": "PGZL1_gVgDgJ Fab (Fab, V domains shown) VH: QVQLVQSGAEVKKPGSSVKVSCKASGGTFSSYAISWVRQAPGQGLEWMGGIIPIFGTANYAQKFQGRVTITADKSTSTAYMELSSLRSEDTAVYYCAREGEGWFGEPLRAFDVWGQGTVITVSS VL: not shown", "values": [
      {"measurement": "binding result", "setting": "HIV-1 HxB2 Env [3]", "value": "binds"}
    ]},
    {"binder": "PGZL1_gVmDmJ_W99A (antibody, V domains shown) V domain 1: QVQLVQSGAEVKKPGSSVKVSCKASGGTFSSYAISWVRQAPGQGLEWMGGIIPIFGTANYAQKFQGRVTITADKSTSTAYMELSSLRSEDTAVYYCAREGEGAFGKPLRAFEFWGQGTVITVSS V domain 2: not shown", "values": [
      {"measurement": "decrease in neutralization against the parent antibody", "setting": "HIV-1 Du156.12 Env [1]", "value": "> 10", "unit": "fold"},
      {"measurement": "decrease in neutralization against the parent antibody", "setting": "HIV-1 HxB2 Env [2]", "value": "> 10", "unit": "fold"}
    ]},
    {"binder": "PGZL1 (antibody, V domains shown) VH: EVQLVQSGGEVKRPGSSVTVSCKATGGTFSTLAFNWVRQAPGQGPEWMGGIVPLFSIVNYGQKFQGRLTIRADKSTTTVFLDLSGLTSADTATYYCAREGEGWFGKPLRAFEFWGQGTVITVSS VL: DVVMTQSPGTLSLSPGERATLSCRASQSVSGGALAWYQQKPGQAPRLLIYDTSSRPTGVPGRFSGSGSGTDFSLTISRLEPEDFAVYYCQQYGTSQSTFGQGTRLEIK", "values": [
      {"measurement": "IC50 (µg/ml), neutralization of HIV-2", "setting": "[4]", "value": "> 10", "unit": "µg/mL"},
      {"measurement": "IC50 (µg/ml), neutralization of chimeric virus", "setting": "HIV-2 C4 chimera Env", "value": 2.38, "unit": "µg/mL"},
      {"measurement": "IC50 (µg/ml), neutralization of chimeric virus", "setting": "HIV-2 C3 chimera Env", "value": "> 10", "unit": "µg/mL"},
      {"measurement": "IC50 (µg/ml), neutralization of HIV-1 Du156.12", "setting": "HIV-1 Du156.12 Env [5]", "value": 0.623, "unit": "µg/mL"},
      {"measurement": "IC50 (µg/ml), neutralization of chimeric virus", "setting": "HIV-2 C1 chimera Env", "value": 0.98, "unit": "µg/mL"}
    ]},
    {"binder": "PGZL1 Fab (Fab, V domains shown, also called Fab PGZL1) VH: EVQLVQSGGEVKRPGSSVTVSCKATGGTFSTLAFNWVRQAPGQGPEWMGGIVPLFSIVNYGQKFQGRLTIRADKSTTTVFLDLSGLTSADTATYYCAREGEGWFGKPLRAFEFWGQGTVITVSS VL: DVVMTQSPGTLSLSPGERATLSCRASQSVSGGALAWYQQKPGQAPRLLIYDTSSRPTGVPGRFSGSGSGTDFSLTISRLEPEDFAVYYCQQYGTSQSTFGQGTRLEIK", "values": [
      {"measurement": "binding result", "setting": "HIV-1 HxB2 Env [3]", "value": "binds"}
    ]},
    {"binder": "PGZL1_W99A (antibody, V domains shown) VH: QVQLVQSGGEVKRPGSSVTVSCKATGGTFSTLAFNWVRQAPGQGPEWMGGIVPLFSIVNYGQKFQGRLTIRADKSTTTVFLDLSGLTSADTATYYCAREGEGAFGKPLRAFEFWGQGTVITVSS VL: DVVMTQSPGTLSLSPGERATLSCRASQSVSGGALAWYQQKPGQAPRLLIYDTSSRPTGVPGRFSGSGSGTDFSLTISRLEPEDFAVYYCQQYGTSQSTFGQGTRLEIK", "values": [
      {"measurement": "decrease in neutralization against the parent antibody", "setting": "HIV-1 Du156.12 Env [1]", "value": "> 10", "unit": "fold"},
      {"measurement": "decrease in neutralization against the parent antibody", "setting": "HIV-1 HxB2 Env [2]", "value": "> 10", "unit": "fold"}
    ]},
    {"binder": "PGZL1_F100A (antibody, V domains shown) VH: QVQLVQSGGEVKRPGSSVTVSCKATGGTFSTLAFNWVRQAPGQGPEWMGGIVPLFSIVNYGQKFQGRLTIRADKSTTTVFLDLSGLTSADTATYYCAREGEGWAGKPLRAFEFWGQGTVITVSS VL: DVVMTQSPGTLSLSPGERATLSCRASQSVSGGALAWYQQKPGQAPRLLIYDTSSRPTGVPGRFSGSGSGTDFSLTISRLEPEDFAVYYCQQYGTSQSTFGQGTRLEIK", "values": [
      {"measurement": "decrease in neutralization against the parent antibody", "setting": "HIV-1 Du156.12 Env [1]", "value": "> 10", "unit": "fold"},
      {"measurement": "decrease in neutralization against the parent antibody", "setting": "HIV-1 HxB2 Env [2]", "value": "> 10", "unit": "fold"}
    ]},
    {"binder": "H4K3_SFS28EPE (antibody, V domains shown) VH: KVQLVQSGAELKKPWSSVRVSCKASGGEPESYAFNWVRQAPGQRLEWLGGIVPLVSSTNYAQRFRGRVTISADRSTSTVYLEMTGLTSADTAVYFCAREGEGWFGRPLRAFEFWGQGTLVTVST VL: EIVLTQSPGTFALSPGERATLSCRASQSVSGGALAWYQQKAGQAPRLLIYDTSGRATGVPGRFSGSGSETDFSLTISRLEPEDFAVYYCQQYGTSQSTFGQGTRLETR", "values": [
      {"measurement": "Fold Increase (neutralization IC50 over H4K3), Du156.12", "setting": "HIV-1 Du156.12 Env [6]", "value": 26.3, "unit": "fold"},
      {"measurement": "IC50, neutralization of Du156.12 pseudovirus", "setting": "HIV-1 Du156.12 Env [6]", "value": 2.89, "unit": "µg/mL"},
      {"measurement": "Fold Increase (neutralization IC50 over H4K3), HxB2", "setting": "HIV-1 HxB2 Env [7]", "value": 16.4, "unit": "fold"},
      {"measurement": "IC50, neutralization of HxB2 pseudovirus", "setting": "HIV-1 HxB2 Env [7]", "value": 1.62, "unit": "µg/mL"}
    ]},
    {"binder": "PGZL1.H4K3 (antibody, V domains shown) VH: KVQLVQSGAELKKPWSSVRVSCKASGGSFSSYAFNWVRQAPGQRLEWLGGIVPLVSSTNYAQRFRGRVTISADRSTSTVYLEMTGLTSADTAVYFCAREGEGWFGRPLRAFEFWGQGTLVTVST VL: EIVLTQSPGTFALSPGERATLSCRASQSVSGGALAWYQQKAGQAPRLLIYGTSGRATGVPGRFSGSGSETDFSLTISRLEPEDFAVYYCQQYGTSQSTFGQGTRLETR", "values": [
      {"measurement": "IC50 (µg/ml), neutralization of HIV-2", "setting": "[4]", "value": "> 10", "unit": "µg/mL"},
      {"measurement": "IC50 (µg/ml), neutralization of chimeric virus", "setting": "HIV-2 C4 chimera Env", "value": 1.17, "unit": "µg/mL"},
      {"measurement": "IC50 (µg/ml), neutralization of chimeric virus", "setting": "HIV-2 C3 chimera Env", "value": "> 10", "unit": "µg/mL"},
      {"measurement": "IC50 (µg/ml), neutralization of HIV-1 Du156.12", "setting": "HIV-1 Du156.12 Env [5]", "value": 0.27, "unit": "µg/mL"},
      {"measurement": "IC50, neutralization of Du156.12 pseudovirus", "setting": "HIV-1 Du156.12 Env [6]", "value": 0.11, "unit": "µg/mL"},
      {"measurement": "IC50, neutralization of HxB2 pseudovirus", "setting": "HIV-1 HxB2 Env [7]", "value": 0.099, "unit": "µg/mL"}
    ]},
    {"binder": "H4K3_5M (antibody, V domains shown) VH: KVQLVQSGAELKKPWSSVRVSCKASGGEPESYAFNWVRQAPGQRLEWLGGIVPLVSSTNYAQRFRGRVTISADPETSTVYLEMTGLTSADTAVYFCAREGEGWFGRPLRAFEFWGQGTLVTVST VL: EIVLTQSPGTFALSPGERATLSCRASQSVSGGALAWYQQKAGQAPRLLIYDTSGRATGVPGRFSGSGSETDFSLTISRLEPEDFAVYYCQQYGTSQSTFGQGTRLETR", "values": [
      {"measurement": "Fold Increase (neutralization IC50 over H4K3), Du156.12", "setting": "HIV-1 Du156.12 Env [6]", "value": 84.5, "unit": "fold"},
      {"measurement": "IC50, neutralization of Du156.12 pseudovirus", "setting": "HIV-1 Du156.12 Env [6]", "value": 9.31, "unit": "µg/mL"},
      {"measurement": "Fold Increase (neutralization IC50 over H4K3), HxB2", "setting": "HIV-1 HxB2 Env [7]", "value": 37.7, "unit": "fold"},
      {"measurement": "IC50, neutralization of HxB2 pseudovirus", "setting": "HIV-1 HxB2 Env [7]", "value": 3.72, "unit": "µg/mL"}
    ]},
    {"binder": "H4K3_RS73PE (antibody, V domains shown) VH: KVQLVQSGAELKKPWSSVRVSCKASGGSFSSYAFNWVRQAPGQRLEWLGGIVPLVSSTNYAQRFRGRVTISADPETSTVYLEMTGLTSADTAVYFCAREGEGWFGRPLRAFEFWGQGTLVTVST VL: EIVLTQSPGTFALSPGERATLSCRASQSVSGGALAWYQQKAGQAPRLLIYDTSGRATGVPGRFSGSGSETDFSLTISRLEPEDFAVYYCQQYGTSQSTFGQGTRLETR", "values": [
      {"measurement": "Fold Increase (neutralization IC50 over H4K3), Du156.12", "setting": "HIV-1 Du156.12 Env [6]", "value": 7.4, "unit": "fold"},
      {"measurement": "IC50, neutralization of Du156.12 pseudovirus", "setting": "HIV-1 Du156.12 Env [6]", "value": 0.814, "unit": "µg/mL"},
      {"measurement": "Fold Increase (neutralization IC50 over H4K3), HxB2", "setting": "HIV-1 HxB2 Env [7]", "value": 3, "unit": "fold"},
      {"measurement": "IC50, neutralization of HxB2 pseudovirus", "setting": "HIV-1 HxB2 Env [7]", "value": 0.299, "unit": "µg/mL"}
    ]}
  ]
}
